We go through 16 molecules from publication PMC9712106 (2022).

Read-outs that look alike come from different tables or passages of the source.

The chains are these.
B11: PfCSS (residues 20 to 290) (domain or fragment)
chain: GQDEKSVKNICVCDFTDKLNFLPLEKTKILCELKPQYGEDIKIIANKEYEINCMNNSKVFCPLKDTFINNTNIKLYSPKLHFEIKDITHKGKNAALYYLKIDEEASDIFFSCSIKPKQVSGLLEGEVRVNLKKHINEEYSIFNEEEDVHVCDFSKGNLDITPSAGFYLKNSRNVSCIYRVIPNKLFLIKLPKLDIVTEKLLPSIVNCLSEFSFINFTLKHVQEGDNYISFNVIFGEFKKHFNLACSLDLSDFQQEPCNLGKTANITFIFSK
modifications: N-linked glycan on Asn88 (seen in the crystal structure)

Experiment in all cases: BLI
A general note: BLI is a label-free optical method that tracks binding on a fibre tip over time.

Assay [1] deals with B11.
For assay [2], the target named is T1, PTRAMP–CSS heterodimer (disulfide-linked PfPTRAMP 42–309 and PfCSS 20–290) (P. falciparum).
T1 chain 1: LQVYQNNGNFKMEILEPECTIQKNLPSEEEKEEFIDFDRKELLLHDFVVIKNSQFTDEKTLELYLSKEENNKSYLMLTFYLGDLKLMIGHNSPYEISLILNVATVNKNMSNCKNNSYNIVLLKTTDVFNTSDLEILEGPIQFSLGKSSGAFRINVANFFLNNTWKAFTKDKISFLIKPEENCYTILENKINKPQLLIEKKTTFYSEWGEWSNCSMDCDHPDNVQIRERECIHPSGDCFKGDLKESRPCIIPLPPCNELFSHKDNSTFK
T1 chain 2: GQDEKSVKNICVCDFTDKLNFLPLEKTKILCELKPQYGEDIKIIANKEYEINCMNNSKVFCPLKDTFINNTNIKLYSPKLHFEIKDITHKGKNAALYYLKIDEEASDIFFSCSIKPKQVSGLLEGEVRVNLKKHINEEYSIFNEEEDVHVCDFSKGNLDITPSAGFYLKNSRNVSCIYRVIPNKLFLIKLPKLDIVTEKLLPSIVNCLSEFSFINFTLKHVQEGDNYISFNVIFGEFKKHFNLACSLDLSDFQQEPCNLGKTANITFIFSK

Assay [3] concerns the target T2, PfPTRAMP (residues 42 to 309), PMX cleaved ectodomain (P. falciparum, UniProt Q8I5M8).
The target in assay [4] is T2, PfPTRAMP (residues 42 to 309), PMX …. This is another data set of the same source.

What is called Kd is a measure of binding affinity in units of concentration.

B1: anti-PfCSS nanobody C10 (VHH)
VHH: QVQLQESGGGLVQAGGSLRLSCVASGRTFSNDAMGWFRQAPGKEREFVAAATRNGLGTGYADSVKGRFTISRDNAKNTVYLQMNSLKPEDTAVYYCAAASDAYYSNQRAAYDYWGQGTQVTVSS
Consider B1, for which the Kd is 1.5 nM in assay [1] and 12 nM in assay [2].

B2: anti-PfCSS nanobody E12 (VHH)
VHH: QVQLQESGGGLVQAGGSLRLSCVASTRTFGNYAMAWFRQAPGKEREFVTTISASGGNTGAAPSVKGRFAISRDNAKNTVYLQMNSLKPEDTAVYYCAAASAYYSNDPARYTYWGQGTQVTVSS
Consider B2, for which the Kd came to 12 nM in assay [1] and 16 nM in assay [2].

B3: anti-PfPTRAMP nanobody H8 (VHH)
VHH: QVQLQESGGGLVQPGGSLRLSCAASGFTFSSYWMYWVRQAPGKGLEWVSAINTGGGSTAYADSVKGRFTISRDNAKNTLYLQMNSLKSDDTAVYYCVKARGSSWSDRVFDYWGQGTQVTVSS
Turning to B3, the Kd in assay [2] was 410 nM; in assay [3], 400 nM.

B4: anti-PfCSS nanobody F1 (VHH)
VHH: QVQLQESGGGLVQAGGPLRLSCVASGRTFSLHLMGWFRQAPGKEREFVAAISGSGGSTYYADSVKGRFTISRDNAKNTVYLQMNSLKPEDTAVYYCAADLENYMSTMLDGYNYWGQGTQVTVSS
As to B4, the Kd stood at 3.5 nM in assay [1] and 9.9 nM in assay [2].

B5: anti-PfCSS nanobody D1 (VHH)
VHH: QVQLQESGGGLVQAGGSLRLSCAASGRTFSSLAMGWFRQPPGKEREFVAAISYSSGSTYYADSVKGRFTISRDNAKNTVYLQMNSLKPEDTAVYYCAVTPPDTYISTMGHEYDYWGQGTQVTVSS
Take B5: the values for the Kd in assay [1] and in assay [2] were 2.6 nM and 9 nM, respectively.

B6: H2 nanobody (anti-PfCSS, non-inhibitory) (VHH)
VHH: QVQLQESGGGLVQPGGSLRLSCAASGSIFSTNAMGWYRQAPGKQREQVATITSGSSTNYADSVKGRFTISRDNAKNTVYLQMNSLKPEDTAVYYCNAAGATIDLADFGSWGQGTQVTVSS
For B6, the Kd in assay [1] was 0.88 nM.

B7: anti-PfCSS nanobody C9 (VHH)
VHH: QVQLQESGGGLVQAGDSLRLSCAASGRTFSSYAMGWFRQAPGKEREFVAAIAWNGGSTYYQDSVKGRFTISRDNAKNTVYLQMNSLKPEDTAVYYCAADDSYMSTMIHEYDYWGQGTQVTVSS
Regarding B7, the Kd in assay [1] turned out to be 6.5 nM; in assay [2], 12 nM.

B8: anti-PfCSS nanobody F7 (VHH)
VHH: QVQLQESGGGSVQVGDSLSLSCVASGRTFSTYALGWFRQAPGKEREFVAAASANGKVAPVTGSLRDRFSISRDNAKNTMYLQMNNLKPEDTAVYYCAAATGSEVFISTSPNVYDIWGQGTQVTVSS
As for B8, the Kd worked out at 5 nM in assay [1] and 9.9 nM in assay [2].

B9: anti-PfCSS nanobody B1 (VHH)
VHH: QVQLQESGGGLVQYGGSLRLSCAASGRTFSSYSMGWFRQAPGKEREFVAAISWTGGNTYYLGSTEGRFTISRDNAKNTVFLQMNNLKPEDTAVYYCAAKGRGSSWPTYDYRGQGTQVTVSS
As for B9, the Kd in assay [1] was determined as 4 nM; in assay [2], 5.6 nM.

B10: anti-PfPTRAMP nanobody H10 (VHH)
VHH: QVQLQESGGGLVQPGGSLRLSCAASGFTFDNYWMYWVRQAPGKGLEWVSAINTVGSHTYYADSVKGRFTISRDNAKNTLYLQMNSLKSEDTAVYYCAKGPWGFGTSGWGEMDYWGKGTQVTVSS
On to B10, for which the Kd worked out at 390 nM in assay [2] and 530 nM in assay [3].

B11: the Kd in assay [4] turned out to be 19 µM.

B12: anti-PfCSS nanobody B6 (VHH)
VHH: QVQLQESGGGLVQAGGSLRLSCAASGRTFSRYAMGWFRQAPGKEREFVAAISWSGGSTTYADSVKGRFTISRDNAKNTVYLQMNSLKPEDTAVYYCAAGDFIIGNMASEYEYWGQGTQVTVSS
As for B12, the Kd was 0.66 nM in assay [1] and 2.5 nM in assay [2].

B13: anti-PfCSS nanobody G5 (VHH)
VHH: QVQLQESGGGLVQAGGSLRLSCVASGRTFSSYGMGWFRQAPGKEREFVSAISSDAASRHYANSVKGRFTISRDNAKNTVTLQMSSLTPEDTAVYYCAAVHAYYSNYDGHYDYWGQGTQVTVSS
Turning to B13, the figures for the Kd in assay [1] and in assay [2] were 4.9 nM and 7 nM, respectively.

B14: D2 nanobody (anti-PfCSS, inhibitory) (VHH)
VHH: QVQLQESGGGLVQAGGSLRLSCAASGRTFSSYAMGWFRQAPGKEREFVAAISYSGSNTYDADSVKGRFAISRDNAKNTVYLQMNSLKPEDTAVYYCAAAGVYSGTYTDTEFDYWGQGTQVTVSS
As to B14, in assay [1], the affinity, expressed as Kd, was 4.4 nM.

B15: anti-PfCSS nanobody D9 (VHH)
VHH: QVQLQESGGGLVQAGGSLTLSCAASGRTFSRSAMGWFRQAPGKGREFVAAISSGDTSTYYMDSVKGRFTISRDSSKNTVYLQMNNLRPEDTAVYYCAADPKSYITTMISEYDIWGQGTQVTVSS
With B15, the Kd stood at 4.4 nM in assay [1] and 11 nM in assay [2].

B16: anti-PfCSS nanobody C1 (VHH)
VHH: QVQLQESGGGLVQAGGSLRLSCAASGRSFSSYAMGWFSQAPGKEREFVAAISWNGGSTYYADSVKGRFTISRNNAKNTVYLQMNSLKPEDTAVYYCAATEPEIYISTMAEGYDYWGQGTQVTVSS
In the case of B16, the Kd was determined as 0.99 nM in assay [1] and 6.8 nM in assay [2].
